Laboratory results published in patent US12029800B2, “Composite particles including anionic polymer and cationic polymer or peptide, and method for producing composite particles” (POLA CHEMICAL INDUSTRIES, INC., priority 2016, dated 2024).

Experiment: Test Example 3: particle diameter of composite particles after adding PBS (imitating the inside of the living body)
Type: physicochemical
Settings: PBS 100% (the same environment as the inside of the skin), FIG. 1
Experimental: An aqueous solution including a composite particle of sodium hyaluronate and a cationic polymer that was each of a primary amine and a quaternary ammonium was prepared in a similar manner as in Test Example 1.
By adding a PBS buffer solution constituted of the ions that are universally found in the living body into an aqueous solution of the prepared composite particles, it was investigated how the composite particles under the environment imitating the inside environment of the living body behaved.
Specifically, PBS was added into an aqueous solution of the prepared composite particles, and the particle diameter of a composite particle in the aqueous solution was measured in a similar manner as in Test Example 2.

| Substance | Particle diameter of the composite particle with sodium hyaluronate at addition amount of PBS 100% |
| --- | --- |
| Protamine | particle diameter was not able to be almost measured |
| Polylysine | particle diameter was not able to be almost measured |
